Among the data in US20220081480A1 are Kd values, retold here.

For test [1], the target named is FcRn (UniProt P55899). Briefly: BLI (Octet), steady state. On the technique in general: In BLI a coated tip is dipped into the sample, and binding shifts an interference pattern.
The target of test [2] is FCγRIIa (CD32a)_H131 (UniProt P12318). Nature of the test: BLI (Octet), steady state.
The target in test [3] is FCγRI (CD64) (UniProt P12314). Briefly: BLI (Octet), antibody on FAB2G tips, kinetic fit.

FCγRIIa (CD32a)_H131, sequence (P12318 36-218 limits assumed): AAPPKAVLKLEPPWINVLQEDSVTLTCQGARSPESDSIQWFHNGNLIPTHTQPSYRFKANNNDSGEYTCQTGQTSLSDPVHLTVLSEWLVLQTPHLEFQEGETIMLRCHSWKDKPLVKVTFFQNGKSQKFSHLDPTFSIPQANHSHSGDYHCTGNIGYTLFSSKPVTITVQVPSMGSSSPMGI

In turn, “hu14.18 IgG2h (FN-AQ, K322A)-delK (antibody)” returned a Kd in test [1] of 825 nM.

hu14.18-huIgG1-delK (antibody): the Kd in test [2] was found to be 670 nM; in test [1], 620 nM; in test [3] it was 1.8 nM.

For orientation: Kd means the concentration at which binding is half-saturated.
